The values that follow come from patent publication US20150080245A1 (CATHOLIC UNIVERSITY INDUSTRY ACADEMIC COOPERATION FOUNDATION, published 2015).

For this assay, the target named is T1, cyclic citrullinated peptide (CCP) derived from filaggrin (X stands for citrulline (9th residue of HQCHQESTXGRSRGRCGRSGS); a chemical bond between the two underlined Cs (cyclic)).
T1 construct: Synthesized peptide, coated on ELISA plates at 250 ng/well; also called Filaggrin-derived CCP; CCP peptide
T1 peptide: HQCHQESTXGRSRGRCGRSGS
In words: ELISA, coated CCP peptide, hybridoma supernatant diluted 1:1000. On the procedure: For hybridoma selection, each of the CCP peptide and the CRP peptide, both previously prepared, was diluted to a final concentration of 250 ng/well in PBS or a carbonate buffer. The dilution was allocated in an amount of 50 μl into 96-well plates and incubated for 2 hrs at room temperature or overnight at 4° C. Each well was washed with 200 μl of PBS. To this end, the plates were overturned to decant the solution out of all the wells, and then struck down against paper towel to completely remove the remaining solution. […] After 30 min of the incubation, the color development was terminated with a stop solution, and color intensity to was immediately measured at 450 nm in a single point photo mode. […]
Repeated screening of the hybridoma cells against CCP and CRP left two clones 11G1 and 12G1 in the final stage (FIGS. 7 and 8). FIGS. 6 to 8 list binding intensities of anti-CCP antibodies when they recognized and bound to the target peptide CCP in each screening stage of the hybridomas, as measured by absorbance at 450 nm. […] With reference made to these marked values, how effectively each hybridoma clone produced an anti-CCP antibody was analyzed, and selection was made of effective clones which were then cultured many times so that the effective clones producing anti-CCP antibodies only predominated over other clones.

B1: monoclonal antibody 12G1 produced from the 12G1 hybridoma cell line (accession No. KCLRF-BP-00276) (antibody, V domains shown)
VH: EVKLEESGAELVRPGTSVKISCKASGYGFTNYWLGWIKQRPGHGLEWIGDVYPGSGNTYYNEKFKGKATLTADKSSSTVYMQLSSLTSEDSTVYFCAREGGITTAPYPFGYWGQGTLVTVSA
VL: DIVMTQTPSSMYASLGERVTITCKASQDINSYLSWFQQKPGKSPKTLIYRANRLVDGVPSRFSGSGSGQDYSLTISSLEYEDMGIYYCLQYDEFPWTFGGGTKLEIK
notes: Mouse monoclonal antibody from a hybridoma, detected with anti-mouse IgG; Used as hybridoma supernatant or as purified antibody; also called 12G1 antibody
Take B1: the binding result is “binds”.
